Paper PMC12561191

Target: BAX, the ligand protein coupled on the SPR chip, Q07812
Assay: SPR
Conditions: natural protein; chains chain; remark: other sources report otherwise

Chain of BAX, the ligand protein coupled on the SPR chip, Q07812 (Q07812 whole entry): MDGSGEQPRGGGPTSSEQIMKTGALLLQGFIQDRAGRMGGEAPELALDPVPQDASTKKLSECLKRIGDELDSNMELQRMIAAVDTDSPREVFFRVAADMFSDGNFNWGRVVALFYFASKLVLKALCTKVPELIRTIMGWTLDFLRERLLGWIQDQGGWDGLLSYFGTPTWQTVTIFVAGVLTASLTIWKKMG

B1: recombinant human MANF (rhMANF) protein, P55145 25-182 (protein)
chain: LRPGDCEVCISYLGRFYQDLKDRDVTFSPATIENELIKFCREARGKENRLCYYIGATDDAATKIINEVSKPLAHHIPVEKICEKLKKKDSQICELKYDKQIDLSTVDLKKLRVKELKKILDDWGETCKGCAEKSDYIRKINELMPKYAPKAASARTDL
- Kd: 11.3 µM
